Experimental data published in PMC4600729.

Key:
[1] = biological target: taxol-stabilized microtubules (polymer of alpha/beta-tubulin), immobilized; assay: single-molecule TIRF microscopy; Kin5_18GFP landing on and dissociating from the lattice of an immobilized microtubule in 1 mM ADP; exponential fit of binding durations
[2] = biological target: taxol-stabilized microtubules (polymer of alpha/beta-tubulin), immobilized; assay: single-molecule TIRF microscopy; GFP-labelled motor (25 pM) in 1 mM ATP on immobilized taxol-stabilized microtubules; pause lifetimes at plus ends, exponential fit; BRB80 pH 6.8
[3] = biological target: taxol-stabilized microtubules (polymer of alpha/beta-tubulin), immobilized; assay: single-molecule TIRF microscopy; spiking experiment, crowded conditions: pM GFP-labelled motor mixed with 15-25 nM unlabelled motor; binding durations at plus ends of taxol-stabilized microtubules

Sequence of taxol-stabilized microtubules (polymer of alpha/beta-tubulin), immobilized (P68363 whole entry, chain 1 of 2): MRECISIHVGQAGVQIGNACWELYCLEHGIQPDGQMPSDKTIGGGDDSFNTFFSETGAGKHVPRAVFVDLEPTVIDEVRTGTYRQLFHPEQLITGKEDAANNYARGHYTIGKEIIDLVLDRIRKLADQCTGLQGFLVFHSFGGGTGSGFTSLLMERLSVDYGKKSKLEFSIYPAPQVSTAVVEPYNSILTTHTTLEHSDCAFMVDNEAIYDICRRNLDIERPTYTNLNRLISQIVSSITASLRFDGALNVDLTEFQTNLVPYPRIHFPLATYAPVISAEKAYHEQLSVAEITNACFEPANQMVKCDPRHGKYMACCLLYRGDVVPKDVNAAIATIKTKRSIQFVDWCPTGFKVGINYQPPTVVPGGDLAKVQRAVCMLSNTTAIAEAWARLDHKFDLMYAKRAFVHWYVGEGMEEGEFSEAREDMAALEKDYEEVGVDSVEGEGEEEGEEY
Sequence of taxol-stabilized microtubules (polymer of alpha/beta-tubulin), immobilized (A8K068 whole entry, chain 2 of 2, further chain): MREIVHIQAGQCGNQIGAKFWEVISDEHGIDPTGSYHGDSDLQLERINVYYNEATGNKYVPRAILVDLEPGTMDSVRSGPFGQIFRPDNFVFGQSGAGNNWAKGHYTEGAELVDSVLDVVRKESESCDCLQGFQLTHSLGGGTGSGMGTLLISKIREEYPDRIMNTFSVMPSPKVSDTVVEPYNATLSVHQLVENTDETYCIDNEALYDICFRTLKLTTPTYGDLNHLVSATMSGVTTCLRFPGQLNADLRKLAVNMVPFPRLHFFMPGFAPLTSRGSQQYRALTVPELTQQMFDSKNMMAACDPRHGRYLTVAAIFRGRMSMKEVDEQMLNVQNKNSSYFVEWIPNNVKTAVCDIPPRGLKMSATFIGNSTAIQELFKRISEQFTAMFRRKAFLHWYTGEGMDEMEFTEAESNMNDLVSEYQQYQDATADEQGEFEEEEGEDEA

## Kin5_18GFP (dimeric kinesin-5: motor domain and native 18-residue neck linker of Xenopus laevis Eg5 fused to the proximal coiled coil of Drosophila conventional kinesin heavy chain, GFP-tagged)
[1]
  mean binding duration on the microtubule lattice in 1 mM ADP: 1.07 s
[2]
  mean pause duration at plus ends: 7 s
[3]
  end duration at plus ends under crowded conditions: 2.26 s
